Measured values: IntAct's records for PubMed 24034250

B1: Apoptosis regulator Bcl-2 homolog (Murid herpesvirus 4 (MuHV-4)), P89884 (parent)
chain: MSHKKSGTYWATLITAFLKTVSKVEELDCVDSAVLVDVSKIITLTQEFRRHYDSVYRADYGPALKNWKRDLSKLFTSLFVDVINSGRIVGFFDVGRYVCEEVLCPGSWTEDHELLNDCMTHFFIENNLMNHFPLEDIFLAQRKFQTTGFTFLLHALAKVLPRIYSGNVIYV

Variants of: B1
Conditions: with becn1_human BECN1, Q14457
Chain of becn1_human BECN1, Q14457 (Q14457 whole entry): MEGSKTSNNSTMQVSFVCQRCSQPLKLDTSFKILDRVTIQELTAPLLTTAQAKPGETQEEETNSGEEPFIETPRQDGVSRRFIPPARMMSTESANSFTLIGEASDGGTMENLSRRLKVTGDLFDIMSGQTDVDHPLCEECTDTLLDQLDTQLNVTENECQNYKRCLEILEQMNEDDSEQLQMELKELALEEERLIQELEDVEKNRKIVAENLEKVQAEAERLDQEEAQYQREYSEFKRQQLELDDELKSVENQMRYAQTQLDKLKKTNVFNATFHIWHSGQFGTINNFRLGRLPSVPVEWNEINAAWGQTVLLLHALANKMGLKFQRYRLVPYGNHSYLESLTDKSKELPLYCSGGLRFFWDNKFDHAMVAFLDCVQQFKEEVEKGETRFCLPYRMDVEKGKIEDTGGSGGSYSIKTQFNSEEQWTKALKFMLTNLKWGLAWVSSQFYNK

Variant | effect of a mutation on the interaction
MSHKKSGTYWATLITAFLKTVSKVEELDCVDSAVLVDVSKIITLTQEFRRHYDSVYRADYGPALKNWKRDLSKLFTSLFVDVINAAAIVGFFDVGRYVCEEVLCPGSWTEDHELLNDCMTHFFIENNLMNHFPLEDIFLAQRKFQTTGFTFLLHALAKVLPRIYSGNVIYV [S85A;G86A;R87A] | decreasing interaction strength

Variants of: B1
Conditions: with bax_human BAX

Variant | effect of a mutation on the interaction
MSHKKSGTYWATLITAFLKTVSKVEELDCVDSAVLVDVSKIITLTQEFRRHYDSVYRADYGPALKNWKRDLSKLFTSLFVDVINAAAIVGFFDVGRYVCEEVLCPGSWTEDHELLNDCMTHFFIENNLMNHFPLEDIFLAQRKFQTTGFTFLLHALAKVLPRIYSGNVIYV [S85A;G86A;R87A] | decreasing interaction strength
